# Data from the DeepSol protein solubility set.
# Assay: soluble on expression in E. coli; label from the status in PepcDB or PDB records
row,Sequence,soluble on expression in E. coli
1,MESGPAVCCQDPRAELVDRVAAINVAHLEEADEGPEPARNGVDPPPRARAASVIPGSASRPTPVRPSLSARKFSLQERPAGSCLGAQVGPYSTGPASHISPRSWRRPTIESHRVAISDTEDCVQLNQYKLQSEIGKGAYGVVRLAYNESEDRHYAMKVLSKKKLLKQYGFPRRPPPRGSQATQGGPAKQLLPLERVYQEIAILKKLDHVNVVKLIEVLDDPAEDNLYLVFDLLRKGPVMEVPCDKPFPEEQARLYLRDIILGLEYLHCQKIVHRDIKPSNLLLGDDGHVKIADFGVSNQFEGNDAQLSSTAGTPAFMAPEAISDSGQSFSGKALDVWATGVTLYCFVYGKCPFIDDYILTLHRKIKNEAVVFPEEPEVSEDLKDLILRMLDKNPETRIGVSDIKLHPWVTKHGEEPLPSEEEHCSVVEVTEEEVKNSVRLIPSWTTVILVKSMLRKRSFGNPFEPQARREERSMSAPGSLLMKEGCGEGCKSPELPGVQEDEAAS,soluble
2,MESGREVWPRDPKKAKQAIKQAEFKCEIDDTHETFVSEASRKNYMEAHHLIPLRMQHDFENSLDVVGNIVSICPNCHRLIHYGRDKDKKKVLELLFELEHHHHHH,soluble
3,MESGSWRPPFSTGKIVGNYGLLKLYLEVAREKGRRDLVDKALISEDDVDMLRRLSASPGATAEDFVNALEERFVERVDPEVASEALARAGINVDGDTARRMIARILAGWLVEMGEEMKLYRLRRSWED,soluble
4,MESKLNLDFNLVEKARAKAKAIAIDTQEFIEKHTTVTVERAVCRLLGIDGVDTDEVPLPNIVVDHIKENNGLNLGAAMYIANAVLNTGKTPQEIAQAISAGELDLTKLPMKDLFEVKTKALSMAKETVEKIKNNRSIRESRFEEYGDKSGPLLYVIVATGNIYEDITQAVAAAKQGADVIAVIRTTGQSLLDYVPYGATTEGFGGTYATQENFRLMREALDKVGAEVGKYIRLCNYCSGLCMPEIAAMGAIERLDVMLNDALYGILFRDINMQRTMIDQNFSRIINGFAGVIINTGEDNYLTTADAFEEAHTVLASQFINEQFALLAGLPEEQMGLGHAFEMDPELKNGFLYELSQAQMAREIFPKAPLKYMPPTKFMTGNIFKGHIQDALFNMVTIMTNQRIHLLGMLTEALHTPFMSDRALSIENAQYIFNNMESISEEIQFKEDGLIQKRAGFVLEKANELLEEIEQLGLFDTLEKGIFGGVKRPKDGGKGLNGVVSKDENYYNPFVELMLNK,soluble
5,MESLGSIALFVLVTETRSFTLAGKRLGISSSGVGKSVGRLEESLGVRLFHRSTRSIALTLEGSIFLDRCRRILSELDAAQLELSNARDLPKGRLRISVPLVFGLVMPVVIQFMRTYPEIELDIDFSDRMVDIIDEGFDVVLRTGEPSDSRLMSKRMGSFQLCIVGSPDYFARHGLPEQPADLIHHACLQHKFPSTGKFEHWPLRREPGSEDFELPQTMVCNTTEVLVEVARAGLGITCLPDFMLASAIRKGELIPILSDYTLHTGSFRLFWASSKHLSVRLRVFIDFMHANLFAPARVGQEGRS,not soluble
6,MESLQSIKEIRKYIENNELVLMYFRSDNSGICYALDPLIEAISKKYSKISSVKVNTGNLPSVPADFKIFTVPEVIIFMNGSIVIEHFKYINFREIEEVLLRYYKCI,not soluble
7,MESRESSKDRLLILPSMGESYTEYVDSYLNLELLERGERETPIFLESLTRQLTQKIYELIKTKSLTADTLQQISDKYDGVVAENKLLFLQRQYYVDDEGNVRDGRNNDKIYCEPKHVYDMVMATHLMNKHLRGKTLHSFLFSHFANISHAIIDWVQQFCSKCNKKGKIKPLKEYKR,soluble
8,METALYLLPVTLGDTPLEQVLPSYNTEIIRGIRHFIVEDVRSARRFLKKVDREIDIDSLTFYPLNKHTSPEDISGYLKPLAGGASMGVISEAGCPAVADPGADVVAIAQRQKLKVIPLVGPSSIILSVMASGFNGQSFAFHGYLPIEPGERAKKLKTLEQRVYAESQTQLFIETPYRNHKMIEDILQNCRPQTKLCIAANITCEGEFIQTRTVKDWKGHIPELSKIPCIFLLYKLEHHHHHH,soluble
9,METASKRPKSGAAKKPAAAKARGDGPSYLDGQLLIAMPVMEDERFARSVIYICAHSSEGAMGIIVNRPAGSIDFPELLVQLDIVEKPEQIKLPDHAESMKVLRGGPVETGRGFVLHSSDFFIKDATLPIDDGICLTATVDILKAIAGGTGPKHAILALGYAGWAPGQLENEIQENGWLHCDADADLIFGDDIEEKYDRALHKLGIEPGMLSAEAGHALEHHHHHH,soluble
10,METEAIDGYITCDNELSPEREHSNMAIDLTSSTPNGQHASPSHMTSTNSVKLEMQSDEECDRKPLSREDEIRGHDEGSSLEEPLIESSEVADNRKVQELQGEGGIRLPNGERPFHCNQCGASFTQKGNLLRHIKLHSGEKPFKCPFCSYACRRRDALTGHLRTHSVGKPHKCNYCGRSYKQRSSLEEHKERCHNYLQNVSMEAAGQVMSHHVPPMEDCKEQEPIMDNNISLVPFERPAVIEKLTGNMGKRKSSTPQKFVGEKLMRFSYPDIHFDMNLTYEKEAELMQSHMMDQAINNAITYLGAEALHPLMQHPPSTIAEVAPVISSAYSQVYHPNRIERPISRETADSHENNMDGPISLIRPKSRPQEREASPSNSCLDSTDSESSHDDHQSYQGHPALNPKRKQSPAYMKEDVKALDTTKAPKGSLKDIYKVFNGEGEQIRAFKCEHCRVLFLDHVMYTIHMGCHGYRDPLECNICGYRSQDRYEFSSHIVRGEHTFH,soluble
11,METEEWFFKGISRKDAERQLLAPGNMLGSFMIRDSETTKGSYSLSVRDYDPRQGDTVKHYKIRTLDNGGFYISPRSTFSTLQELVDHYKKGNDGLCQKLSVPCMSSK,soluble
12,METFQKIKELVVVPERQSVILSVKQDLVNPLQDIAQQMAQYVTREYPLTLIDGVKLTPALEEQAFATYQTVQNLLTLKASVEDIAEALDVLEGGLTMQKVSNAEARAKAYITALNGISLWALLQAVKNLVRGEAKGMSTTFVPSCADLAQYCRDLENRLSGTAEKVFIAVENSRNLALGGKRISFMRIGKPCEELHGNLSSKAA,not soluble
13,METKCELNNTKKVANAFGLNEEDTNLLINAVDLDIKNNMQEISSELQQSEQSKQKQLGTTLQNLAKQNRIIK,not soluble
14,METLLTQILDRLDQLHSSVGALTSDVNEMKNQLNKIEARAGSIEERVNSIEARVDSIESRVNNIEANMATKDELAELRSKVDDIEAKMATKDELAELRSTVNGLQSNVNEIQAKMATKEELAELRSKVNELQFKVNELQSNVNEIQAKMATKDDLVPIRQAVMEIDQIVKRIEVNQERHEHILAILSKRSIEHEASIASLRQAQ,not soluble
15,METNALDVNKQSWDQAAPRFFARNPLPEYGPLAPSEEELHLFGDVDRLKVLEIGCGSGHSLKYLDEKQAGELWGIDLSTKQIEAAQTVLKDSKAPVTLFESPMEVNPGLPTDYFDIVFSIYALGWTTNLTKTLENVYRYLKPGGSFIFSWEHPMYNRVRQHQHGLTVDKSYHEEGAYAHEAWSSPAIMQQYRLSTYLNHLIDHGFKVERVIEDVCLADAQKHTNGWYGYEKAQMIPTTLIIKCLKQLEHHHHHH,not soluble
16,METVQLRNPPRRQLKKLDEDSLTKQPEEVFDVLEKLGEGSYGSVYKAIHKETGQIVAIKQVPVESDLQEIIKEISIMQQCDSPHVVKYYGSYFKNTDLWIVMEYCGAGSVSDIIRLRNKTLTEDEIATILQSTLKGLEYLHFMRKIHRDIKAGNILLNTEGHAKLADFGVAGQLTDTMAKRNTVIGTPFWMAPEVIQEIGYNCVADIWSLGITAIEMAEGKPPYADIHPMRAIFMIPTNPPPTFRKPELWSDNFTDFVKQCLVKSPEQRATATQLLQHPFVRSAKGVSILRDLINEAMDVKLKRQESQQREMDQDDEENSEEDEMDSGTMVRAVGDEMGTVRVASTMTDGANTMIEHDDTLPSQLGTMVINAEDEEEEG,soluble
17,MEVKYGLHPTLGEHGERELLALQKVDYPKGDVKAQAKHTARTLLECYNCHSLGEYNTLLNLYNITVYEVRGSVDGKEYHGIMYGALDDNGQQVGTPFKSSKFGKVFGYEALQKKFAASAEKVKKDNLPERLEHHHHHH,not soluble
18,MEWAAKKTNSLTSSSERTWKANLLVPVEDPRELMGTFDFLRDITYPKGSVKLLGLAGNTDKENLLSQLPSISEGFQEEGVFSSWTIIDTAEFEENLVVGMEALTGSFFRPSILFLRLPENRDRDEEIREIIRKASMYRMGVLLFSKHPQAGLGRQNLINLWIENRGLDWDISMELGNMDLALLIAYKLKSNWKASLSFMTFAPTAIQAQAAENFLQSLAELARIPNVKMQVLRENPIKSSKLPFASLHIFSLDPNPDLDLARHLMEKAGSSCIFALDSGEENALALLEHHHHHH,soluble
19,MEYCRLDGDTGRLRTEIKHPRLLLFNPGHEMVPEIIGKKPYVPPPVVRSMMRDLGLLPAWLTKSEQDFVFCPEKTLPIPDTHPLKPEARLLQIPDTALPLNDYTLDMWGQSPVWLAALQHRFLWLSTVSAPYYPHELYERSHRCEAARCLEAIGHSEMAAHWFTSINDFLKERYHCFPPDSALLAKLPSSSSGRGLIWLSSSPTDDEIDLLTKALRRAGSFSVEPVLDVRQDWAAEFYSNGKGELYFVGWSRFDTNRWGAYLGNRLATQTDLVAELTQTVGAQAHEEAIASVKDYLRER,not soluble
20,MEYDAFITNQLRGAQNQSSGLTTRYEQMSKIDNLLADKSSSLSGSLQSFFTSLQTLVSNAEDPAARQALIGKAEGLVNQFKTTDQYLRDQDKQVNIAIGSSVAQINNYAKQIANLNDQISRMTGVGAGASPNDLLDQRDQLVSELNKIVGVEVSVQDGGTYNLTMANGYTLVQGSTARQLAAVPSSADPTRTTVAYVDEAAGNIEIPEKLLNTGSLGGLLTFRSQDLDQTRNTLGQLALAFADAFNAQHTKGYDADGNKGKDFFSIGSPVVYSNSNNADKTVSLTAKVVDSTKVQATDYKIVFDGTDWQVTRTADNTTFTATKDADGKLEIDGLKVTVGTGAQKNDSFLLKPVSNAIVDMNVKVTNEAEIAMASESKLDPDVDTGDSDNRNGQALLDLQNSNVVGGNKTFNDAYATLVSDVGNKTSTLKTSSTTQANVVKQLYKQQQSVSGVNLDEEYGNLQR,soluble
21,MEYSDIRDRILLATLPNVPFDGWSGKALRLGAESAGFDREAADRAFPGGPAEAVGHFIDLANRMMEADLGARDLSGLKLPEKIHLAIKLRLERWAGDREAVRRGLALLSLPGHARLSLKSTYATVDGIWHAVGDRSVDFSFYTKRAELAAIYGATLLVWLEDTSEESAETWAFLDRRLEGVIRLRKARAKLRERMTHLPTLPRLLNPLDLVRKPFGLMRSMRMRLEHHHHHH,soluble
22,MFAMTSSAQSPLQQLGGTVVLAGAGKMGGALLTGWLAQGLDGGDVVVIEPHPTEEIAALSARGVRLNASAGDVGAVSTLVVAVKPQMFAEAAAALRGYVGPSTLVVSIMAGKPIAALSEQLGGHVVRAMPNTPAAIGRGITVAVAAGNVTAAQRGIADALLRATGGVEWVDDEALIDAVTAVSGSGPAYVFLLAEELARAGVEAGLPEGLAMTLARATVAGSGELLHRSDLDAATLRKNVTSPGGTTAAALEVLMANDGFRPLLTRAVAAATKRSKELAKAAALEHHHHHH,soluble
